From patent US20130071410A1 (published 2013)

Target: T1, human CGRP receptor (CRLR + RAMP1) (human, UniProt Q16602 23-461; O60894 27-148)
T1 construct: also called hCGRP R; huCGRP R
Experiment: FACS staining of transfected cells

T1 sequence (Q16602 23-461 limits assumed, chain 1 of 2): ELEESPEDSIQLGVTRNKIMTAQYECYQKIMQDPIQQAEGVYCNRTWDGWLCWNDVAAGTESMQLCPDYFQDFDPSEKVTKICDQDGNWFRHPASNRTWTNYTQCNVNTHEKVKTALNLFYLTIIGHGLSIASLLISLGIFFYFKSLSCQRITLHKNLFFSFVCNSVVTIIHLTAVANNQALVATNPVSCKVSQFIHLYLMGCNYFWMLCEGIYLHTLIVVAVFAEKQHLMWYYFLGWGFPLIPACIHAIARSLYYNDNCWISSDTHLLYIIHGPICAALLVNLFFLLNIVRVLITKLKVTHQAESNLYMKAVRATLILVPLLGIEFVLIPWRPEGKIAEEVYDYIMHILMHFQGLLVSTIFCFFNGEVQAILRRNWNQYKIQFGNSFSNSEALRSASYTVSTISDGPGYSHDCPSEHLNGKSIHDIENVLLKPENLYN
T1 sequence (O60894 27-148 limits assumed, chain 2 of 2): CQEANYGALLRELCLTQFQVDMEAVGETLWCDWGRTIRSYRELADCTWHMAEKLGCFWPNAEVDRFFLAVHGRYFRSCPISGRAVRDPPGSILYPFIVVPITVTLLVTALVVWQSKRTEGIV

Ac-WVTHRLAGLLSRSGGVVRCNFVPTDVGPFAF-NH2 (also: Alexa 647 label, site not given here, also called Alexa647-CGRP8-37) [Alexa 647-labeled CGRP8-37 peptide analog]: binds.
